{
  "source": "paper PMC7788559",
  "binders": {"B1": {"name": "Sj60mer blunt dsDNA (dsDNA)", "DNA 1": "TTGTAAAACGACGGCCAGTGAATTCATCATCAATAATATACCTTATTTTGGGATCTATGC", "DNA 2": "GCATAGATCCCAAAATAAGGTATATTATTGATGATGAATTCACTGGCCGTCGTTTTACAA"}},
  "molecular_target": "MRN (MRE11-RAD50-NBS1) wild type (Homo sapiens, UniProt P49959;Q92878;O60934 1-708;1-1312;1-754)",
  "sequence (P49959 whole entry, chain 1 of 3)": "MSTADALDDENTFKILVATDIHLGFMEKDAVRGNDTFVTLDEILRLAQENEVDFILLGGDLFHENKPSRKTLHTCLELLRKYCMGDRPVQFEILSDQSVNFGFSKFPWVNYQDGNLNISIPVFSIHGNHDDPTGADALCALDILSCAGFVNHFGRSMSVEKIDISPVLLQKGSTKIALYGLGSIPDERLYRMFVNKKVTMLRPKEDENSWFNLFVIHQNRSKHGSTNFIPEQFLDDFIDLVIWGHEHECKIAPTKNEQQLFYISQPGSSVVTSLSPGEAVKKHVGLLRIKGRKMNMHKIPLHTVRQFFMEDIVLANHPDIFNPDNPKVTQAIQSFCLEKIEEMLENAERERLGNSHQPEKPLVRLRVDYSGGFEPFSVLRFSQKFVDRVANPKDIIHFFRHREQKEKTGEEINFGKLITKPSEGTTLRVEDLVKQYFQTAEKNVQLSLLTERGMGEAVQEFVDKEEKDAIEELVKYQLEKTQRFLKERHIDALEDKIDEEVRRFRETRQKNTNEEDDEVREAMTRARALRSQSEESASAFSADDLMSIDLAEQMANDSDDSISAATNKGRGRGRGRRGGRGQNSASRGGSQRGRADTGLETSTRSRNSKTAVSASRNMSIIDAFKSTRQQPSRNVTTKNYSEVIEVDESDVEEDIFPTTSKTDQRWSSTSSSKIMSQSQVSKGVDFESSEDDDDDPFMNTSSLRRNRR",
  "sequence (Q92878 whole entry, chain 2 of 3)": "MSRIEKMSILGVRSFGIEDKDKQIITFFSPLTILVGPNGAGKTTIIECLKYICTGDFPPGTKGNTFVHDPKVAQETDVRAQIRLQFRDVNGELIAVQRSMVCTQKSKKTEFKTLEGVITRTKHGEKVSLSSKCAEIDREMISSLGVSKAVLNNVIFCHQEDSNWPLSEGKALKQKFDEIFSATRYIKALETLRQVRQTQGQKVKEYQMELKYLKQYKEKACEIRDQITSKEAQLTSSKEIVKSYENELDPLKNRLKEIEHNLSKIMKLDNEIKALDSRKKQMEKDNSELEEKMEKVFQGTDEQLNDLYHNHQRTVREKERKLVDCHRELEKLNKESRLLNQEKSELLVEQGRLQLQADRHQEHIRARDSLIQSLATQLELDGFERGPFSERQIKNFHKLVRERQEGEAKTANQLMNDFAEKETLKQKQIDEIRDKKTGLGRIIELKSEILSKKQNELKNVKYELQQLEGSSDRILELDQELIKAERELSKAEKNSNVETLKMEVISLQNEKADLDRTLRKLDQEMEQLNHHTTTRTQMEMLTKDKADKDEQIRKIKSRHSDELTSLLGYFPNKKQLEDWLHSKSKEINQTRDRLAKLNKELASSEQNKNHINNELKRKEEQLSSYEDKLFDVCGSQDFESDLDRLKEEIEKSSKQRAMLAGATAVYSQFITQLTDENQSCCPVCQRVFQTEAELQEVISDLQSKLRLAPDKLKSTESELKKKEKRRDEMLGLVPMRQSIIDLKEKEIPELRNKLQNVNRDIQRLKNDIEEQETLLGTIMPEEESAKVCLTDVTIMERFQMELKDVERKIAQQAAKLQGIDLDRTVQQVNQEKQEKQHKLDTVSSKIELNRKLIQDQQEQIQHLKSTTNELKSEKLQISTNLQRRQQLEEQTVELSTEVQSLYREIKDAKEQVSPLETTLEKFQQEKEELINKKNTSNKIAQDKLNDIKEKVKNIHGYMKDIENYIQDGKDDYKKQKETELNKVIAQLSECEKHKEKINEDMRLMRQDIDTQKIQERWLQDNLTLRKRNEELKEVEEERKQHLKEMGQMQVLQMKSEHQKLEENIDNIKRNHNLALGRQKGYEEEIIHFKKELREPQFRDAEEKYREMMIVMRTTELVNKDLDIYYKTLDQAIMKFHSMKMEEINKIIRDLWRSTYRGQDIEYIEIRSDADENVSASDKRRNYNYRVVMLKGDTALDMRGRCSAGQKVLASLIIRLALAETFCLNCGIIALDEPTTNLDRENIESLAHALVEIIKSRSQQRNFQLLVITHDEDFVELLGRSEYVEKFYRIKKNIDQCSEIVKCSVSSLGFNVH",
  "sequence (O60934 whole entry, chain 3 of 3)": "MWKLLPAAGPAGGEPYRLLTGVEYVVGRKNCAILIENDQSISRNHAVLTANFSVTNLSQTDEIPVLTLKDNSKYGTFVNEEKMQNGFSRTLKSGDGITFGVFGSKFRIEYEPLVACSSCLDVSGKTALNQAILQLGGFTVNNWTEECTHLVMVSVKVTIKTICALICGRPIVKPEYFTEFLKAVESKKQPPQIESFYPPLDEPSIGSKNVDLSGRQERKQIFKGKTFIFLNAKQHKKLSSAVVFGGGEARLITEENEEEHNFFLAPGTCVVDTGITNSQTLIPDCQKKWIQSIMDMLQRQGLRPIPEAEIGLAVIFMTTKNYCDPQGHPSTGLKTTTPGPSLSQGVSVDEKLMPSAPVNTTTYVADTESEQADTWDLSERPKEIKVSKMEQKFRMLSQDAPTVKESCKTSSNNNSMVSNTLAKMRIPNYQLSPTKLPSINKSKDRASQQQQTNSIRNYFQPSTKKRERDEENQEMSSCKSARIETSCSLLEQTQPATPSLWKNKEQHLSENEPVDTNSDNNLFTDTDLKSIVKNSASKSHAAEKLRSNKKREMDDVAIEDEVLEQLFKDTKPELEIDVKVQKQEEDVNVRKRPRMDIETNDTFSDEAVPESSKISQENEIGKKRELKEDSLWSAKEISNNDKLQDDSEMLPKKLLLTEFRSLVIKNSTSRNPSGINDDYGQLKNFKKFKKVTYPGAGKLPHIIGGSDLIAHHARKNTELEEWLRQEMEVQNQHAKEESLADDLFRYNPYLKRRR",
  "test": "pull-down, immunoblot",
  "data": [
    {"binder": "B1", "values": [
      {"measurement": "binding result", "value": "binds"}
    ]}
  ]
}
